From patent US20090324700A1, “METHODS AND COMPOSITIONS FOR THE INHIBITION OF CATHEPSINS” (priority 2003, published 2009) come the findings set out here.

For one assay, the target named is T1, cathepsin B (Homo sapiens, UniProt P07858).
T1 construct: purchased Calbiochem or Athens Research and Technology
Kind of assay: Kinetics of cathepsin B inhibition by Spi2A. It is filed as biochemical.

The test system of assay [1] is secondary anti-LCMV CD8 cells. The note with it: mouse, in vivo.
Another assay relates to Spi2A mRNA. The note with it: mouse, in vivo.
The subject of the next assay is NIH3T3 cells. Briefly: Survival of NIH3T3 cells incubated with Naphazarin (ROS). It is filed as cell-based. As to conditions: 16 hours; three clones vs GFP controls; FIG. 12B. As to the method: FIGS. 12A-B: Spi2A inhibits the lysosomal pathway of death in the absence of caspase activity. FIG. 12A: Cathepsin B activity in crude cytoplasmic extracts from cloned GFP or Spi2A-A NIH3T3 cells before (time=00 h) or after (time=8 h) treatment with TNF-α+Z-VAD.fmk (50 μM). FIG. 12B: Spi2A protects NIH3T3 cells from death due to reactive oxygen species. NIH3T3 fibroblasts from independent clones harboring control retrovirus (GFP clones #, 18, 12 and 2) or one expressing Spi2A (Spi2A clones# 6, 4 and 2) were incubated with Naphazarin—a known initiator of Reactive Oxygen Species (ROS). After 16 hours, the percentage of live cells was determined by flow cytometry as described in Liu et al. (2003).
Spi2A protects NIH3T3 cells from death due to reactive oxygen species. NIH3T3 fibroblasts from independent clones harboring control retrovirus (GFP clones #, 18, 12 and 2) or one expressing Spi2A (Spi2A clones# 6, 4 and 2) were incubated with Naphazarin—a known initiator of Reactive Oxygen Species (ROS). After 16 hours, the percentage of live cells was determined by flow cytometry as described in Liu et al., 2003.

The subject of another assay is RelA^−/− MEFs. Briefly: Lysosome internal pH (acridine orange, flow cytometry), RelA^−/− MEFs. The note with it: TNF-α 0.2 ng/ml, CHX 0.1 μg/ml; FIG. 8. It is filed as cell-based, mouse. As to the method: FIG. 8. Spi2A offers partial protection of lysosomal de-acidification in […]. RelA^−/− MEFs were transduced by retrovirus encoding GFP alone or Spi2A as indicated by the percentage AO-low cells after treatment with TNF-α (0.2 ng/ml) and CHX (0.1 μg/ml). The percentage of intact lysosomes was determined by staining with AO as has been described previously (Zhao et al., 2000). Briefly, cells were incubated with AO (5 μg/ml), washed and collected for flow cytometric assessment of uptake into intact lysosomes as indicated by red fluorescence (FL3 channel).
The inhibitory reaction was too fast to be measured using our conventional spectrophotometer. […] Lysosome internal pH was measured by staining with the weak basic, lysosomotropic dye—acridine orange (AO)— and flow cytometry (Zhao et al., 2000). Increase in lysosomal pH results a corresponding decrease in AO red fluorescence and the appearance of AO-low cells. It was shown that TNF-R1 cross-linking results in the appearance of AO-low cells in Rel A^−/− MEFs transduced with control retrovirus (GFP) (Supplementary FIG. 4). […] The appearance of AO-low cells can be interpreted as lysosomal rupture, and so it is possible that Spi2A in some way protects lysosomes from damage induced by TNF-α.
A general note: A flow cytometer gives signals particle by particle.

A further assay deals with T2, human cathepsin V (Homo sapiens, UniProt O60911).
T2 construct: made in house
Briefly: Protease specificity of Spi2A: cathepsin V. The class given is biochemical. As to conditions: protease 20 nM, Spi2A 200 nM, 1 h at 37° C; FIG. 6B. As to the method:
(§1) Protease specificity of Spi2A. RelA^−/− MEFs were transduced with retrovirus encoding Spi2A with a C-terminal 3×FLAG epitope tag and Spi2A-3×FLAG purified using a method described previously (Cooley et al., 1998). Briefly, cells (3×10^9) were lysed and Spi2A-3×FLAG (75 μg) purified by batch Q-Fast Flow ion-exchange chromatography (Pharmacia Biotech) after elution at 160-220 mM NaCl followed by anti-FLAG antibody columns, performed according to manufacturer's instructions (Sigma-Aldrich). Spi2A-3×FLAG was dialysed into PBS and stored as aliquots at −80° C. until needed.
(§2) Proteases were purchases from the manufacturers (Calbiochem or Athens Research and Technology) except granzymes A and B which were purified as described (Hanna et al., 1993) and cathespin V and K, which were purified as described (Bromme et al., 1999; Linnevers et al., 1997). Proteases (20 nM) were incubated in the appropriate assay buffer with Spi2A at 200 nM (at least 10-fold excess of inhibitor to maintain pseudo-first order conditions) for 1 h at 37° C. Control samples included only the enzyme, without the inhibitor. At the end of 1 h protease activity was assayed. […] Substrate hydrolysis was measured in a fluorescence microtiter plate reader (Spectramax Gemini XS, Molecular Devices). Percentage inhibition was calculated from the residual enzyme activity compared to no Spi2A controls. […]

The target of a further assay is T3, caspase 3 (Homo sapiens, UniProt P42574).
T3 construct: purchased Calbiochem or Athens Research and Technology
T3 sequence (P42574 29-175 limits assumed): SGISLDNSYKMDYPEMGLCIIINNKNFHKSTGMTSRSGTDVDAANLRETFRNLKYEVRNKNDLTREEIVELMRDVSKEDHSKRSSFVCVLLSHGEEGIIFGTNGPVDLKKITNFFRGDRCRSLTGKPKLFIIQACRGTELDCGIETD
T3 sequence (P42574 176-277 limits assumed): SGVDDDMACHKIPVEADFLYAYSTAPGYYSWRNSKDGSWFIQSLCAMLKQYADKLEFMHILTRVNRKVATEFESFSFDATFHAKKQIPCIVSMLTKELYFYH
Kind of assay: Protease specificity of Spi2A: caspase 3. The class given is biochemical. The note with it: FIG. 6B. The procedure:
as §1, §2

T2 sequence (O60911 114-334): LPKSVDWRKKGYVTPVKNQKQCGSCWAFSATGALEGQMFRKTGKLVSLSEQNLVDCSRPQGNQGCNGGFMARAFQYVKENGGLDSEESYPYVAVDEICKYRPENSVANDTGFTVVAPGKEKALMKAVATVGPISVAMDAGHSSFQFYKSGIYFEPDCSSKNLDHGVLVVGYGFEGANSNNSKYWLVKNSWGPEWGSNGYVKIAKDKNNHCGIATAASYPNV

B1: Spi2A: murine Spi2A polypeptide, SEQ ID NO:2; purified as C-terminal 3×FLAG protein or expressed from MIGR1 retrovirus in cells and bone-marrow chimeras (protein, listed as Mus musculus)
chain: MAGVSPAVFGCPDVTLGRNTAVREVQENVTSVDSLTLVSSNTDFAFSLYRKLVLKNPDENVVFSPFSICTALALLSLGAKSNTLKEILEGLKFNLTETPEPDIHQGFRYLLDLLSQPGNQVQISTGSALFIEKHLQILAEFKEKARALYQAEAFTADFQQPLKATKLINDYVSNHTQGKIKELISGLKESTLMVLVNYIYFKGKWKNPFDPNDTFKSEFYLDEKRSVIVSMMKTGYLTTPYFRDEELSCTVVELKYTGNASAMFILPDQGRMQQVEASLQPETLRKWKNSLKPRMIHELRLPKFSISTDYSLEHILPELGIREVFSTHADLSAITGTKDLRVSQVVHKAVLDVAEKGTEAAAATGMAGVGCCAVFDFLEIFFNRPFLMIISDTKAHIALFMAKVTNPERSTNFPNGEGASSQRLESKRLCFGDPLCLIGQ
modifications: C-terminal 3xFLAG tag
notes: purified as C-terminal 3×FLAG protein or expressed from MIGR1 retrovirus in cells and bone-marrow chimeras
For B1, the “second-order association rate constant for the inhibition of cathepsin B” value in the assay with cathepsin B (20 nM cathepsin B, 5 μM (Z-FR)2-R110, 200 or 400 nM Spi2A, pseudo-first order conditions) is listed as > 10^6 M^−1 s^−1. Besides, the “Inhibition of cathepsin B within the dead time of the measurement” value in the assay with cathepsin B (dead time ˜30 s, 200 or 400 nM Spi2A) was “completely inhibited”. In assay [1], the “Number of anti-LCMV CD8 cells per spleen GFP^−” value was 45.94 ± 7.55 (n = 4) ×10^−5; the “Percentages and absolute numbers of secondary anti-LCMV CD8 cells (recall response)” value was “significantly increased”; the “proportional change of anti-LCMV CD8 cells compared to the GFP control” value was “(417%)”. In addition, in the assay on Spi2A mRNA, the “Spi2A mRNA in GFP^+ CD8^+ spleen cells” value was “significant increase”. The “Survival (percentage of live cells) with Naphazarin” value in the assay with NIH3T3 cells was “significantly increased survival”. The “Appearance of AO-low cells (lysosomal de-acidification)” value with RelA^−/− MEFs is “less AO-low cells”. Besides, the “Inhibition of protease by Spi2A (percentage inhibition)” value in the assay with human cathepsin V is on record as “extended to all of the lysosomal, papain-like proteases that were examined”. The “Inhibition of protease by Spi2A (percentage inhibition)” value with caspase 3 is recorded as “did not extend to any of the caspases tested”.
